# Test results from patent US7893023B2, “Prodrugs activated by plasmin and their use in cancer chemotherapy” (priority 2000, dated 2011).
# Where two headings read alike, the source gives them in different places. Square brackets hold non-standard residues; d marks the D form. Peptide text beside a SMILES is read from it. * marks the point of attachment. ξ: configuration not given here. Doxorubicin(3'-N) = COc1cccc2c1C(=O)c1c(O)c3c(c(O)c1C2=O)C[C@@](O)(C(=O)CO)C[C@@H]3O[C@H]1C[C@H](N*)[C@H](O)[C@H](C)O1; X1 = COc1cccc2c1C(=O)c1c(O)c3c(c(O)c1C2=O)C[C@@](O)(C(C)=O)CC3OC1C[C@H](N*)[C@H](C)[C@H](C)O1; AMC = Cc1cc(=O)oc2cc(N*)ccc12; ξL = CC(C)CC(N)C(=O)O; ξK = NCCCCC(N)C(=O)O; ξA = CC(N)C(=O)O
# Experiments:
# [1] = system: MCF-7/6 human mammary carcinoma cells; test: In vitro accumulation by cultured MCF-7/6 tumor cells; assay type: cell-based; settings: 0.02 mM, 37° C., after 24 hours
# Method: Compound I, DNR was incubated in vitro at 37° C. in the presence of MCF-7/6 human mammary carcinoma cells and the intracellular accumulation of the compound or its potential metabolites were analyzed by HPLC and fluorimetry, after extraction of the drugs from the cells.
# Compound I, DNR was dissolved in distilled water at 17.24 μmole/ml and then diluted to obtain 0.02 mM in DMEM-F12 culture medium supplemented with 10% fetal calf serum (glutamax-I). Four ml of medium was poured in 25 cm^2 flasks (ref 3014. FALCON), and the cells were incubated for 30 minutes, 1, 3, 6 and 24 hours at 37° C. Then the cells were washed three times with PBS, and the cells were scraped from the flasks, and sonicated for 30 seconds at 100 Watts in a ice bath. Aliquots of 500 μl from each sample were then extracted with 1.8 ml of a chloroform:methanol mixture (4:1 by volume) to which 0.1 ml of 0.2 M borate buffer at pH 9.2, containing DOX at […] as internal standard, were added. After stirring, the organic layer was dried and resuspended in 400 μl of distilled water, sonicated 5 minutes at 100 Watts in a ice-bath and filtered through a 0.22 μm filter (Waters-Millipore, MILLEX-GV) and then analyzed by HPLC.
# On a aliquot of 100 μl, the protein content of the cell homogenate was determined.
# human plasmin = biological target: T1, human plasmin (Homo sapiens, UniProt P00747); test: Hydrolysis by human plasmin; assay type: biochemical; settings: for rate of in vitro hydrolysis by human plasmin: 0.17 mM, 0.1 units human plasmin, 25° C., 50 mM pH 8.0 TES buffer
# T1 construct: purchased Sigma
# Method: In an eppendorf tube, 50 μl of the substrate at a concentration of 50 μM in DMF were mixed with 900 μl of TES buffer and 50 μl of an enzyme-containing solution. The mixture was incubated for 1 hour at 25° C. Fluorescence was determined (λexc=350 nm, λem=496 nm; fluorometer standardized with a 10 nM solution of 7-amido-4-methylcoumarin in PBS and the whole mixture excluding the enzyme). A dosage curve was done in parallel with known plasmin concentrations (at least five ½ dilutions). Plasmin activity was determined and expressed in IU/ml; μmole substrate transformed/min×ml.
# Compounds I, DNR and II, DNR (0.17 mM), as well as D-Ala-Leu-Lys-7-amido-4-methylcoumarin (0.17 mM) were incubated at 25° C. in the presence of 0.1 units of human plasmin in a 50 mM, pH 8.0 TES buffer. For Compounds I, DNR and II, DNR, HPLC samples were prepared and analyzed by HPLC (See General Methods, Section J). In case of D-Ala-Leu-Lys-7-amido-4-methylcoumarin, after 1 hour of incubation, the fluorescence of the resulting solution was determined at λexc=350 nm, λem=496 nm (See General Methods, Section N.).
# After 15, 45 and 60 min of incubation, triplicate aliquots were removed and the drugs and metabolites extracted prior to HPLC analysis (See General Methods, Section J.).
# [2] = system: medium conditioned by cultured B16-B16 cells; test: Hydrolysis in medium conditioned by B16-B16 cells; assay type: in vitro ADME, murine; settings: 17.24 μM, medium 20 times concentrated, 2 hours, 37° C.
# Method: Compounds I, DNR and II, DNR (17.24 μM) were incubated in a medium freshly conditioned by the cultured B16-B16 cells (20 times concentrated) for 2 hours at 37° C. After that time, triplicate aliquots were removed and the drugs and metabolites extracted prior to HPLC analysis (See General Methods, Section J.).
# B16-B16 melanoma cells = test: Uptake by B16-B16 cells; assay type: cell-based, murine
# Method: This experiment was conducted to evaluate whether the prodrugs were able to enter cultured cells in their non-hydrolyzed forms. In addition, it was desired to estimate the capacity of the prodrugs to induce detectable levels of products of their enzymatic hydrolysis (DNR and its amino acid derivatives) inside B16-B16 cells. N-Leu-Leu-DNR was chosen as a reference drug since it is the product that is directly liberated by plasmin from Compound II, DNR.
# At determined time points (1, 3, 5 and 24 hours), the cells were washed, harvested and lysed by ultrasonication. The concentration of the drugs and metabolites in the cell lysates were determined after extraction and HPLC analysis (See General Methods, Section J.). The amounts of anthracycline derivatives found per mg of protein were then compared.
# [3] = Acute toxicity in OF-1 mice, i.p.; assay type: in vivo; settings: male, mouse, in vivo, ip; OF-1 mice, five i.p. injections days 0-4, calculated on day 28
# Method: (§1) The percentage of surviving mice and the mean body weight of each dose group was plotted as a function of time. Cumulative mortality on day 14 and day 28 was also plotted as a function of the dose level for the purpose of IC50 determination. IC50 values were determined from sigmoidal regressions performed with the GraphPad Prism 3.00 software.
# (§2) Male OF-1 mice (5 weeks old upon delivery), were kept for one week under laboratory conditions before the experiment. […] The animals were divided in six groups (5 mice per group) for toxicity studies and marked individually.
# (§3) Mortality and clinical signs were recorded up to 4 hours post-treatment on dosing days, and daily thereafter. Individual body weights were recorded daily until day 14 and at least twice a week thereafter. The percentage of surviving mice and the mean body weight of each dose group were plotted as a function of time. Cumulative mortality on day 14 and day 28 was also plotted as a function of the dose level for the purpose of LD50 determination. LD50 values were determined by regression analysis.
# OF-1 mice = test: Acute toxicity in OF-1 mice, i.p.; assay type: in vivo
# Method: as §1, §2, §3
# [4] = system: LS174T colon tumor xenografts; test: Chemotherapeutic activity in the LS174T human colon tumor xenograft model; assay type: in vivo, mice
# Source text: Animals were kept under pathogen-free conditions with food and water supplied ad libitum, and kept for about one week before implantation of the tumors. Fragments (˜2 mm) of tumors grown in nude mice were implanted subcutaneously in both flanks of the mice. Tumors were generally allowed to grow to attain a diameter of 5-6 mm each (approximately two weeks).
# The mice weighed 20.0-25.0 g at the beginning of the study. They were selected and assigned to groups in order to have equally distributed tumor volumes in the different groups. In each group, mice were labeled individually. Treatments were assigned randomly to those groups.
# All dosing solutions were prepared the day of injection by dissolution in water ( 1/10 of the expected final volume) and further dilution with 0.9% (w/v) NaCl. The concentration of these solutions was checked (A475 nm determination) after sterilization by filtration (0.22 μm) and adjusted to the final required value using sterile 0.9% (w/v) NaCl).
# Treatments were administered by the i.p. route. The mice received a constant volume (10 μl/g) of either saline (control group) or drug. Mortality and clinical signs were recorded up to 4 hours post-treatment on dosing days, and daily thereafter. Their behavior was equally noted. Individual body weights were generally recorded daily until day 14 and at least twice a week thereafter.
# Tumor growth was monitored by two-dimensional measurements using calipers and a precision of 0.5 mm. Tumor volumes were calculated according to the following formula: Vt=[length×(width)^2]/2
# Median relative tumor volumes (RTV) were calculated as tumor volumes determined at individual days divided by tumor volumes on day 0. For treated groups, growth inhibition was estimated as the percentage ratio of median RTV of treated (T) mice versus controls (C) on each day of tumor treatment. T/C(%)=[Median RTV(treated group)/Median RTV(control group)]×100
# The minimal T/C value (%) for each treatment was used as a parameter for maximum efficacy. Duration of growth inhibition was assessed by considering growth delays (T-C) for one (200%) and two (400%) doublings of the median RTV).
# To determine the statistical significance of any difference in median RTV between two groups, the Mann-Whitney test was used. The test was conducted at a p level of 0.05 (two tailed) using the GraphPad Prism 3.00 software.
# Female Swiss nude mice were 5 weeks old upon delivery (See General Methods, Section O). They were kept under pathogen-free conditions with food and water supplied ad libitum, and kept for about one week before implantation of the tumors. Fragments (˜2 mm) of LS174T tumors grown in nude mice were implanted subcutaneously in both flanks of the mice used in the study. Tumors were left to grow for 17 days. At that time, the mice weighed about 20.5-26.5 g.
# Mice were then selected and assigned to groups in order to have equally distributed tumor volumes in different groups (5-6 mice, 9-10 tumors/group). The dose levels of Compound II, DOX used in the study, were selected on the basis of a lethality study previously conducted on OF-1 normal mice. The dose of DOX was based on previous chemotherapy experiments performed in nude mice with the same dosing schedule.
# Treatments were administered by the i.p. route on days 0, 1, 2, 3 and 4, the mice receiving a constant volume (10 μl/g) of either saline or the different dosing solutions. DOX was used at 3.8 μmol/kg, Compound II, DOX was used at 25.9 μmol/kg and 34.5 μmol/kg. Clinical signs (recorded 0.5, 1, 2 and 4 hours after dosing and daily between dosing days) and body weights (recorded on each day of tumor measurement) were used to assess treatment toxicity, tumor growth was monitored on days 7, 12, 15, 19, 22, 26, 29, 33 and 36 by two-dimensional measurements using calipers and a precision of 0.5 mm.
# [5] = DOX 3.8 μmol/kg, Compound II, DOX lower dosage 25.9 μmol/kg, i.p. days 0-4
# Method for B16-B16 murine melanoma: Male C57-B16 black mice were 5 weeks old upon delivery. The body weight of the animals was approximately 20 g at the beginning of the test (See General Methods, Section O).
# The animals were divided in eight groups (5 mice per group). Confluent murine melanoma B16-B16 cells (See General Methods, Section E.) were washed twice with PBS and EDTA (See General Methods, Section F.) twice and detached with trypsin (2 min incubation at 37° C.), that was thereafter neutralized by DMEM-F12 (containing 10% of calf serum). The cells were centrifuged for 5 min at 300 g. The pellet was resuspended twice in the DMEM-F12 without serum and centrifuged 5 min at 300 g.
# The number of cells per ml of DMEM-F12 was then estimated (Brucker chamber) and the dilution of 2.5×10^5 cells/ml prepared. Each animal received 200 μl of this suspension (5.0×10^4 cells) in its tail vein. The day of injection was considered day 0 of the study. […] Animals were weighed on days 0, 1, 3, 6, 8 and 14. Their behavior and eventual clinical signs were also noted. All animals were sacrificed on day 14 and autopsied.
# The lung lobes were fixed in a Bouin's solution (picric acid: formaldehyde, 40%: acetic acid, 15:5:1, v/v). Every lobe immersed in the fixing solution in a Petri flask was uniformly lighted against an opaque black background. Pictures of the front and back side of every lobe were taken with the help of a light microscope, scanned and digitized. The relative surface occupied by B116-B16 colonies was then estimated with the Scion Image Program.
# The individual mean values were analyzed with the Scheffe's F-test to evaluate the statistical significance of differences observed between the groups.
# T1 sequence (P00747 581-810 limits assumed): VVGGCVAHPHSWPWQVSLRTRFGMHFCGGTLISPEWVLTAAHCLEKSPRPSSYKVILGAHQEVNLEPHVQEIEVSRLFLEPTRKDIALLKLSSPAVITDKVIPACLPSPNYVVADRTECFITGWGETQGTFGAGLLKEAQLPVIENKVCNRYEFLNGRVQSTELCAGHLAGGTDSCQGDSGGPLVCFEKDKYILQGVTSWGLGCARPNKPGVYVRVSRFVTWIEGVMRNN
# T1 sequence (P00747 97-580 partner limits assumed): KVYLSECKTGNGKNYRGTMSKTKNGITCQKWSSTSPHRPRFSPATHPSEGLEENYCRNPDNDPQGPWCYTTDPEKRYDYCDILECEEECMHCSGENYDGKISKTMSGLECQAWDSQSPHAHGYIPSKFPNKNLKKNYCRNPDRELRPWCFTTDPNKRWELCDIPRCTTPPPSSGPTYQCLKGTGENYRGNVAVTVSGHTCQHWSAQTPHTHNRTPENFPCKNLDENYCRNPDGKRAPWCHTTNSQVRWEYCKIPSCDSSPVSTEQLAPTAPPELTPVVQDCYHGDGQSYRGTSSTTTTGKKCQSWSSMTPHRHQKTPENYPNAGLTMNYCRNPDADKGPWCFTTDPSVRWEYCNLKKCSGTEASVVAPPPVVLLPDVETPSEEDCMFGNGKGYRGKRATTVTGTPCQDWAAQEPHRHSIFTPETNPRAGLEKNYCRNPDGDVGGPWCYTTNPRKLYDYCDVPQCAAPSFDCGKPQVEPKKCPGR
molecule,measurement,setting,value
"COc1cccc2c1C(=O)c1c(O)c3c(c(O)c1C2=O)C[C@@](O)(C(C)=O)CC3OC1C[C@H](NC(=O)C(CC(C)C)NC(=O)C(CCCCN)NC(=O)C(CC(C)C)NC(=O)C(C)N)[C@H](C)[C@H](C)O1 (stereo partly drawn) [Compound I, DNR, D-Ala-Leu-Lys-Leu-DNR]",accumulation by cultured MCF-7/6 cells,[1],approximately 0.1 μg/mg of cell proteins
same,rate of in vitro hydrolysis by human plasmin,human plasmin,approximately 2.75 nmol/min/unit
same,hydrolysis in medium conditioned by B16-B16 cells,[2],Negative results
same,intracellular level of metabolite DNR,B16-B16 melanoma cells,0.015±0.002 mmol/mg cell protein
"COc1cccc2c1C(=O)c1c(O)c3c(c(O)c1C2=O)C[C@@](O)(C(=O)CO)C[C@@H]3O[C@H]1C[C@H](NC(=O)[C@H](CC(C)C)NC(=O)[C@H](CC(C)C)NC(=O)[C@H](CCCCN)NC(=O)[C@H](CC(C)C)NC(=O)[C@@H](C)N)[C@H](O)[C@H](C)O1 [Compound II, DOX, D-Ala-Leu-Lys-Leu-Leu-DOX] (H-[dA]LKLL-{Doxorubicin(3'-N)})",LD50 at 28 day,[3],34.5 µmol/kg
same,survival,"OF-1 mice; OF-1 mice, 17.24-60.34 μmol/kg i.p. days 0-4",All animals survived to day 7
same,clinical signs of toxicity,"OF-1 mice; OF-1 mice, i.p.","piloerection, tremor, motor disturbances, stupor and finally, paralysis of the hind legs"
same,loss of mean body weight compared to initial body weight (critical threshold attained),"OF-1 mice; doses 34.48 (after second week), 43.1 and 60.34 μmol/kg (after first week)",≥ 20%
same,LD50 fold higher than that of DOX,OF-1 mice; same conditions,8.4 fold
same,mice that died before the end of the study,"[4]; 34.5 μmol/kg i.p. days 0-4, deaths on days 18, 34 and 35",three
same,maximum loss of mean body weight,"[4]; 34.5 μmol/kg, day 26",14%
same,treatment-related mortality,[4]; [5],No treatment-related mortality
same,weight loss,[4]; [5],no significant weight loss
same,body weight gained from day 6 to day 14,B16-B16 murine melanoma; 34.5 μmol/kg,4.9%
same,"mean body weight, % of initial","B16-B16 murine melanoma; 34.5 μmol/kg, day 14",104.5%
same,clinical signs of toxicity,B16-B16 murine melanoma; 34.5 and 69.0 μmol/kg,No clinical signs of toxicity were observed
N-Leu-Leu-DNR,intracellular level of metabolite DNR,"B16-B16 melanoma cells; B16-B16 cells, 3 hours",0.67±0.12 nmol/mg cell protein
same,intracellular level of metabolite L-Leu-DNR,"B16-B16 melanoma cells; B16-B16 cells, 3 hours",81.22±6.66 nmol/mg cell protein
same,intracellular level of the unchanged compound,"B16-B16 melanoma cells; B16-B16 cells, 3 hours of incubation",7.74±0.75 nmol/mg cell protein
same,intracellular level of metabolite L-Leu-DNR,"B16-B16 melanoma cells; B16-B16 cells, 24 hours",98.57±16.76 nmol/mg cell protein
same,intracellular level of the unchanged compound,"B16-B16 melanoma cells; B16-B16 cells, 24 hours",1.04±0.10 mmol/mg cell protein
same,intracellular level of metabolite DNR,"B16-B16 melanoma cells; B16-B16 cells, 24 hours (end of incubation)",1.60±0.77 nmol/mg cell protein
"Cc1cc(=O)oc2cc(NC(=O)[C@H](CCCCN)NC(=O)[C@H](CC(C)C)NC(=O)[C@@H](C)N)ccc12 [D-Ala-Leu-Lys-7-amido-4-methylcoumarin, reference compound] (H-[dA]-Leu-Lys-{AMC}; N-terminus assumed)",rate of in vitro hydrolysis by human plasmin,human plasmin,20.40 nmol/min/unit
same,hydrolysis in medium conditioned by B16-B16 cells,[2],Negative results
"COc1cccc2c1C(=O)c1c(O)c3c(c(O)c1C2=O)C[C@@](O)(C(C)=O)CC3OC1C[C@H](NC(=O)C(CC(C)C)NC(=O)C(CC(C)C)NC(=O)C(CCCCN)NC(=O)C(CC(C)C)NC(=O)C(C)N)[C@H](C)[C@H](C)O1 (stereo partly drawn) [Compound II, DNR, D-Ala-Leu-Lys-Leu-Leu-DNR] (H-[ξA][ξL][ξK][ξL][ξL]-X1)",rate of in vitro hydrolysis by human plasmin,human plasmin,27.90 nmol/min/unit
same,"hydrolysis by plasmin, times more rapid than Compound I, DNR",human plasmin; same conditions,at least 10 times
same,hydrolysis in medium conditioned by B16-B16 cells,[2],Negative results
